The target in the assay is GST-tagged p21C-terminal peptide. As to the kind of experiment: pull-down.

On to “proliferating cell nuclear antigen (PCNA), endogenous (from UniProt P12004 1-261) (natural protein)”, for which the extent of PCNA depletion is > 95%.
